{"source": "paper PMC3832495", "about": "“Human Factor H-Related Protein 2 (CFHR2) Regulates Complement Activation” (PLoS ONE, 2013)", "key": {"[1]": {"molecular_target": "N-biotinylated C3b (UniProt P01024)", "assay": "SPR; Biacore T200, 25°C; N-biotinylated C3b captured on a streptavidin-coated CM3 chip (520 RU); factor H or CFHR2 6.25–3200 nM in HBS-EP (10 mM HEPES pH 7.4, 150 mM NaCl, 50 µM EDTA, 0.005% P20), 30 µl/min; 1:1 model with mass transport term, KD from kinetic rate constants; one CFHR2 dimer regarded as one molecule"}, "[2]": {"molecular_target": "CFHR2/1-2 (N-terminal SCRs 1-2 of CFHR2) (human)", "assay": "SEC-MALS; static light scattering (miniDawn TREOS, Optilab T-rEX) with size exclusion chromatography on Superdex 200 or Superdex 75; proteins purified by Ni2+-chelate chromatography, deglycosylated, non-reduced"}, "[3]": {"molecular_target": "T1, C3dg (UniProt P01024 955-1303)", "T1 construct": "C3dg, cleavage fragment of complement C3; cloned with the printed primer pair; source: E. coli, pET200/D-Topo expression system, purified (Ni-NTA Superflow Cartridge), dialyzed against DPBS", "T1 sequence (P01024 955-1303)": "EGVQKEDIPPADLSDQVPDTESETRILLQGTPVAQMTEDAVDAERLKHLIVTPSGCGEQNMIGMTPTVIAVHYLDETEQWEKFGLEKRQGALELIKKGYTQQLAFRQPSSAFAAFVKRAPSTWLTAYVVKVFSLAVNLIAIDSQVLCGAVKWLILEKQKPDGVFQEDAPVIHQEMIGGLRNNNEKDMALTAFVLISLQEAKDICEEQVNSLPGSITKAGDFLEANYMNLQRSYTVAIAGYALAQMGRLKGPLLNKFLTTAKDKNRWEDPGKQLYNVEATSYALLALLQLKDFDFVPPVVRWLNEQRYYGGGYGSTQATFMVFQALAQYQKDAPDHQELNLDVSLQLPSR", "assay": "ELISA; C3b, C3c, C3dg or C3d (each 142 nM) coated on MaxiSorp plates; CFHR2 or factor H (each 0.07 µM) or CFHR2 fragments in equimolar amounts; detected with CFHR1 and factor H antisera", "conditions": "both partners purified"}, "[4]": {"molecular_target": "the molecule itself", "assay": "SEC-MALS; static light scattering (miniDawn TREOS, Optilab T-rEX) with size exclusion chromatography on Superdex 200 or Superdex 75; proteins purified by Ni2+-chelate chromatography, deglycosylated, non-reduced"}, "[5]": {"molecular_target": "T2, C3d (UniProt P01024 1002-1303)", "T2 construct": "C3d, cleavage fragment of complement C3; source: bought: Complement Technology", "T2 sequence (P01024 1002-1303)": "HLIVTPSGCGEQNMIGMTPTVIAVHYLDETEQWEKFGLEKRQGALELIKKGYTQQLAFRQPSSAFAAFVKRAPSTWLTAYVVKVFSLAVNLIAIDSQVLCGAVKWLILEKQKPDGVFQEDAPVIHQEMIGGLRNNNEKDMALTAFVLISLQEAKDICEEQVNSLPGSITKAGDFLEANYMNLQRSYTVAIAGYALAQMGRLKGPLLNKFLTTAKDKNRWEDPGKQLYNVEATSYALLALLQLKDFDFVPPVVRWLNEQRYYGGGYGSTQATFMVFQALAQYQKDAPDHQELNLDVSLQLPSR", "assay": "ELISA; competition: C3b or C3dg (methods; C3d in results) 5 µg/ml immobilised; constant CFHR2 (5 µg/ml, 0.07 µM) and increasing factor H (5–50 µg/ml, 0.033–0.33 µM); factor H detected with factor H/1-4 antiserum, CFHR2 with mAb A72", "conditions": "both partners purified"}}, "data": [{"molecule": "Factor H (from UniProt P08603 19-1231) (natural protein)", "values": [{"measurement": "Kd", "setting": "[1]", "value": 570, "unit": "nM"}]}, {"molecule": "CFHR2/1-2 (N-terminal SCRs 1-2 of CFHR2) (domain or fragment)", "values": [{"measurement": "stoichiometry N", "setting": "[2]", "value": 2}]}, {"molecule": "Human factor H-related protein 2 (CFHR2), recombinant full length (natural protein, UniProt P36980 19-270, looked up, Complement factor H-related protein 2 (CFHR2), human, four SCR domains; Secreted from Pichia; Several glycosylated forms; also called CFHR2 homodimer; CFHR2 dimer) EAMFCDFPKINHGILYDEEKYKPFSQVPTGEVFYYSCEYNFVSPSKSFWTRITCAEEGWSPTPKCLRLCFFPFVENGHSESSGQTHLEGDTVQIICNTGYRLQNNENNISCVERGWSTPPKCRSTISAEKCGPPPPIDNGDITSFLLSVYAPGSSVEYQCQNLYQLEGNNQITCRNGQWSEPPKCLDPCVISQEIMEKYNIKLKWTNQQKLYSRTGDIVEFVCKSGYHPTKSHSFRAMCQNGKLVYPSCEEK", "values": [{"measurement": "binding result", "setting": "[3]", "value": "binds"}, {"measurement": "stoichiometry N", "setting": "[4]", "value": 2}, {"measurement": "binding result", "setting": "[5]", "value": "binds"}, {"measurement": "Kd", "setting": "[1]", "value": 4200, "unit": "nM"}]}]}
